Test system: Escherichia coli TOP10
Experiment: shrunken log2 fold change of peptide-encoding DNA abundance (4.5 h post-induction vs induction); higher = less antimicrobial activity (less host growth inhibition)
Conditions: time post-induction: 4.5 h; library: site-saturation at positions 5, 18, 19, 20
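Further: peptides expressed intracellularly from a pBAD plasmid library in pooled LB shake-flask culture, induced with 0.3% L-arabinose, DNA abundance read by NGS, three biological replicates, DESeq2 with apeglm shrinkage.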

| Sequence | shrunken log2 fold change |
| --- | --- |
| RRIRWRPPRLPRPRPRPWEQPRP | 0.0277 |
| RRIRWRPPRLPRPRPRPWFHPRP | -0.125 |
| RRIRWRPPRLPRPRPRPWFTPRP | -0.0224 |
| RRIRWRPPRLPRPRPRPWIHPRP | -0.192 |
| RRIRWRPPRLPRPRPRPWIQPRP | 0.0861 |
| RRIRWRPPRLPRPRPRPWIVPRP | -0.337 |
| RRIRWRPPRLPRPRPRPWIWPRP | 0.0705 |
| RRIRWRPPRLPRPRPRPWLFPRP | 0.0264 |
| RRIRWRPPRLPRPRPRPWLWPRP | 0.242 |
| RRIRWRPPRLPRPRPRPWMGPRP | 0.0275 |
| RRIRWRPPRLPRPRPRPWMVPRP | 0.0468 |
| RRIRWRPPRLPRPRPRPWNAPRP | -0.176 |
| RRIRWRPPRLPRPRPRPWNTPRP | -0.195 |
| RRIRWRPPRLPRPRPRPWNYPRP | -0.98 |
| RRIRWRPPRLPRPRPRPWPLPRP | -0.273 |
| RRIRWRPPRLPRPRPRPWPSPRP | 0.018 |
| RRIRWRPPRLPRPRPRPWPTPRP | 0.336 |
| RRIRWRPPRLPRPRPRPWSSPRP | -0.0663 |
| RRIRWRPPRLPRPRPRPWWWPRP | 0.12 |
| RRIRWRPPRLPRPRPRPWYFPRP | 0.275 |
| RRIRWRPPRLPRPRPRPYAFPRP | 0.107 |
| RRIRWRPPRLPRPRPRPYAHPRP | -0.056 |
| RRIRWRPPRLPRPRPRPYCEPRP | -0.481 |
| RRIRWRPPRLPRPRPRPYCGPRP | -0.187 |
| RRIRWRPPRLPRPRPRPYDFPRP | -0.181 |

| Sequence | shrunken log2 fold change |
| --- | --- |
| RRIRWRPPRLPRPRPRPYFVPRP | -0.309 |
| RRIRWRPPRLPRPRPRPYGGPRP | -0.683 |
| RRIRWRPPRLPRPRPRPYGMPRP | -0.4 |
| RRIRWRPPRLPRPRPRPYHEPRP | -0.123 |
| RRIRWRPPRLPRPRPRPYILPRP | -0.849 |
| RRIRWRPPRLPRPRPRPYIMPRP | -0.116 |
| RRIRWRPPRLPRPRPRPYKAPRP | 0.0233 |
| RRIRWRPPRLPRPRPRPYKLPRP | -0.327 |
| RRIRWRPPRLPRPRPRPYKNPRP | -0.61 |
| RRIRWRPPRLPRPRPRPYKVPRP | -0.482 |
| RRIRWRPPRLPRPRPRPYKWPRP | -0.484 |
| RRIRWRPPRLPRPRPRPYLHPRP | -0.639 |
| RRIRWRPPRLPRPRPRPYLSPRP | -0.242 |
| RRIRWRPPRLPRPRPRPYNCPRP | -0.331 |
| RRIRWRPPRLPRPRPRPYRGPRP | -0.0785 |
| RRIRWRPPRLPRPRPRPYVIPRP | -0.0496 |
| RRIRWRPPRLPRPRPRPYVQPRP | -0.0608 |
| RRIRWRPPRLPRPRPRPYVSPRP | -0.0404 |
| RRIRWRPPRLPRPRPRPYWPPRP | -0.022 |
| RRIRWRPPRLPRPRPRPYWTPRP | -0.175 |
| RRIRYRPPRLPRPRPRPAAGPRP | -0.197 |
| RRIRYRPPRLPRPRPRPAAVPRP | 0.0751 |
| RRIRYRPPRLPRPRPRPAFRPRP | -0.287 |
| RRIRYRPPRLPRPRPRPAHVPRP | -0.144 |
| RRIRYRPPRLPRPRPRPAIEPRP | 0.0193 |

| Sequence | shrunken log2 fold change |
| --- | --- |
| RRIRYRPPRLPRPRPRPAIIPRP | -0.244 |
| RRIRYRPPRLPRPRPRPAKAPRP | 0.0797 |
| RRIRYRPPRLPRPRPRPAKYPRP | -0.142 |
| RRIRYRPPRLPRPRPRPAMCPRP | 0.00292 |
| RRIRYRPPRLPRPRPRPAMIPRP | -0.229 |
| RRIRYRPPRLPRPRPRPAMMPRP | 0.0997 |
| RRIRYRPPRLPRPRPRPAMPPRP | -0.549 |
| RRIRYRPPRLPRPRPRPANKPRP | -0.278 |
| RRIRYRPPRLPRPRPRPAQYPRP | -0.562 |
| RRIRYRPPRLPRPRPRPARNPRP | -0.0503 |
| RRIRYRPPRLPRPRPRPASSPRP | -0.0244 |
| RRIRYRPPRLPRPRPRPAVEPRP | 0.161 |
| RRIRYRPPRLPRPRPRPAWNPRP | -0.374 |
| RRIRYRPPRLPRPRPRPAYMPRP | -0.396 |
| RRIRYRPPRLPRPRPRPAYYPRP | -0.318 |
| RRIRYRPPRLPRPRPRPCATPRP | 0.0757 |
| RRIRYRPPRLPRPRPRPCCMPRP | -0.356 |
| RRIRYRPPRLPRPRPRPCCTPRP | -0.418 |
| RRIRYRPPRLPRPRPRPCDFPRP | -0.227 |
| RRIRYRPPRLPRPRPRPCDMPRP | -0.01 |
| RRIRYRPPRLPRPRPRPCECPRP | -0.0717 |
| RRIRYRPPRLPRPRPRPCFEPRP | -0.614 |
| RRIRYRPPRLPRPRPRPCGEPRP | -0.0504 |
| RRIRYRPPRLPRPRPRPCGQPRP | -0.0335 |
| RRIRYRPPRLPRPRPRPCIPPRP | -0.11 |

| Sequence | shrunken log2 fold change |
| --- | --- |
| RRIRYRPPRLPRPRPRPCLAPRP | -0.838 |
| RRIRYRPPRLPRPRPRPCMEPRP | -0.0771 |
| RRIRYRPPRLPRPRPRPCMIPRP | -0.731 |
| RRIRYRPPRLPRPRPRPCMTPRP | -0.34 |
| RRIRYRPPRLPRPRPRPCNYPRP | -0.87 |
| RRIRYRPPRLPRPRPRPCRAPRP | -0.459 |
| RRIRYRPPRLPRPRPRPCRIPRP | -0.0823 |
| RRIRYRPPRLPRPRPRPCRVPRP | 0.00293 |
| RRIRYRPPRLPRPRPRPCYKPRP | -0.0156 |
| RRIRYRPPRLPRPRPRPDAIPRP | -0.224 |
| RRIRYRPPRLPRPRPRPDANPRP | -0.114 |
| RRIRYRPPRLPRPRPRPDAPPRP | -0.0708 |
| RRIRYRPPRLPRPRPRPDEWPRP | 0.0549 |
| RRIRYRPPRLPRPRPRPDGCPRP | -0.029 |
| RRIRYRPPRLPRPRPRPDGPPRP | 0.123 |
| RRIRYRPPRLPRPRPRPDHNPRP | -0.217 |
| RRIRYRPPRLPRPRPRPDKSPRP | -1.15 |
| RRIRYRPPRLPRPRPRPDLEPRP | -0.0757 |
| RRIRYRPPRLPRPRPRPDLYPRP | -0.0604 |
| RRIRYRPPRLPRPRPRPDMFPRP | -0.0113 |
| RRIRYRPPRLPRPRPRPDMNPRP | 0.00911 |
| RRIRYRPPRLPRPRPRPDNNPRP | -0.189 |
| RRIRYRPPRLPRPRPRPDNVPRP | -0.0165 |
| RRIRYRPPRLPRPRPRPDPAPRP | -0.164 |
| RRIRYRPPRLPRPRPRPDPWPRP | -0.26 |

| Sequence | shrunken log2 fold change |
| --- | --- |
| RRIRYRPPRLPRPRPRPDQFPRP | -0.435 |
| RRIRYRPPRLPRPRPRPDQWPRP | -0.103 |
| RRIRYRPPRLPRPRPRPDQYPRP | -0.292 |
| RRIRYRPPRLPRPRPRPDRTPRP | -0.0309 |
| RRIRYRPPRLPRPRPRPDRWPRP | -0.118 |
| RRIRYRPPRLPRPRPRPDSHPRP | -0.782 |
| RRIRYRPPRLPRPRPRPDSTPRP | -0.112 |
| RRIRYRPPRLPRPRPRPDTPPRP | 0.0497 |
| RRIRYRPPRLPRPRPRPDTYPRP | -0.145 |
| RRIRYRPPRLPRPRPRPDVVPRP | 0.0135 |
| RRIRYRPPRLPRPRPRPDWVPRP | -0.252 |
| RRIRYRPPRLPRPRPRPEAGPRP | -0.0468 |
| RRIRYRPPRLPRPRPRPEARPRP | 0.105 |
| RRIRYRPPRLPRPRPRPEASPRP | -0.0105 |
| RRIRYRPPRLPRPRPRPECMPRP | -0.417 |
| RRIRYRPPRLPRPRPRPEDYPRP | -0.00116 |
| RRIRYRPPRLPRPRPRPEEPPRP | 0.115 |
| RRIRYRPPRLPRPRPRPEEYPRP | -0.255 |
| RRIRYRPPRLPRPRPRPEFLPRP | -0.252 |
| RRIRYRPPRLPRPRPRPEGAPRP | 0.295 |
| RRIRYRPPRLPRPRPRPEITPRP | -0.295 |
| RRIRYRPPRLPRPRPRPEKHPRP | -0.322 |
| RRIRYRPPRLPRPRPRPEKPPRP | -0.00145 |
| RRIRYRPPRLPRPRPRPENFPRP | 0.00911 |
| RRIRYRPPRLPRPRPRPENNPRP | -0.572 |

| Sequence | shrunken log2 fold change |
| --- | --- |
| RRIRYRPPRLPRPRPRPEPDPRP | 0.0689 |
| RRIRYRPPRLPRPRPRPEPLPRP | 0.0319 |
| RRIRYRPPRLPRPRPRPEPPPRP | 0.49 |
| RRIRYRPPRLPRPRPRPEPTPRP | 0.0581 |
| RRIRYRPPRLPRPRPRPEPYPRP | -0.288 |
| RRIRYRPPRLPRPRPRPEREPRP | -0.0221 |
| RRIRYRPPRLPRPRPRPESCPRP | 0.0195 |
| RRIRYRPPRLPRPRPRPESPPRP | -0.0215 |
| RRIRYRPPRLPRPRPRPEVAPRP | -0.0541 |
| RRIRYRPPRLPRPRPRPEVSPRP | -0.117 |
| RRIRYRPPRLPRPRPRPEVVPRP | -0.219 |
| RRIRYRPPRLPRPRPRPFAEPRP | -0.509 |
| RRIRYRPPRLPRPRPRPFCHPRP | -0.239 |
| RRIRYRPPRLPRPRPRPFCPPRP | -0.878 |
| RRIRYRPPRLPRPRPRPFCQPRP | 0.0155 |
| RRIRYRPPRLPRPRPRPFDIPRP | 0.0167 |
| RRIRYRPPRLPRPRPRPFDYPRP | -0.184 |
| RRIRYRPPRLPRPRPRPFEQPRP | -0.382 |
| RRIRYRPPRLPRPRPRPFETPRP | 0.111 |
| RRIRYRPPRLPRPRPRPFFCPRP | -0.644 |
| RRIRYRPPRLPRPRPRPFFLPRP | -0.763 |
| RRIRYRPPRLPRPRPRPFFNPRP | -0.811 |
| RRIRYRPPRLPRPRPRPFFPPRP | -0.682 |
| RRIRYRPPRLPRPRPRPFFRPRP | -0.019 |
| RRIRYRPPRLPRPRPRPFFVPRP | -0.689 |

From the supplement of paper PMC9112550, “Optimization of the antimicrobial peptide Bac7 by deep mutational scanning” (BMC Biology, 2022)
